This note sets out measurements from US20210347873A1 (SHANGHAI PHARMAEXPLORER, published 2021).

For test [1], the target named is T1, biotinylated hBLyS-ECD (human, UniProt Q9Y275 134-285, biotinylated with Biotin-X-X-NHS (molar ratio 7:1); sites not stated).
T1 construct: also called biotinylated immunogen; BLyS protein
The test is described as follows: blocking ELISA: biotinylated hBLyS-ECD on coated BAFF R, antibody 4 nM. The protocol: (§1) BAFF R (purchased from R & D Systems) was aliquoted into 96-well ELISA plate at 50 ng per well, and the plate was sealed with plastic film and incubated overnight at 4° C. On the next day the plate was washed four times with the plate washing buffer [PBS buffer containing 0.05% (v/v) Tween20] and added with blocking solution [PBS buffer containing 0.05% (v/v) Tween20 and 1% (w/w) BSA], then blocked for 1 hour at room temperature. The blocking solution was removed and 50 μL per well of the lead antibodies prepared in Embodiment 1 and 2 were added followed by the addition of 50 μL per well of the biotinylated hBLyS-ECD prepared in Embodiment 2. After incubation for 1 hour at 37° C., the plate was washed four times with the plate washing buffer [PBS buffer containing 0.05% (v/v) Tween20]. 100 μL per well of HRP-labeled (horseradish peroxidase) avidin (purchased from Sigma) was added and incubated at 37° C. for 1 hour. The plate was then washed four times with the plate washing buffer [PBS buffer containing 0.05% (v/v) Tween20]. 100 μL of TMB substrate was aliquoted into each well and after incubation for 5 minutes at room temperature, then 100 μL of stop solution (1.0 N HCl) was aliquoted into each well. A₄₅₀ₙₘ values were read with an ELISA plate reader (SpectraMax 384plus, Molecular Device) and the results were shown in FIGS. 9A-9B and Table 15. It was shown in Table 15 that the binding of BLyS protein to its receptor BAFF R could be blocked by the BLyS antibody.
On the technique in general: In an ELISA, binding on a coated surface is turned into a signal by an enzyme label.

For test [2], the target named is T1, biotinylated hBLyS-ECD. Kind of test: blocking ELISA: biotinylated hBLyS-ECD on coated BAFF R, antibody 0.16 nM. On the procedure: as §1
For test [3], the target named is T2, biotinylated hBLyS-ECD (human, UniProt Q9Y275 134-285, biotinylated with Biotin-X-X-NHS (molar ratio 7:1), sites not stated).
T2 construct: The hBLyS-ECD of Embodiment 1 after biotinylation (Embodiment 2); also called biotinylated immunogen; BLyS protein; not shown: His tag of the pCPC vector
T2 sequence (Q9Y275 134-285): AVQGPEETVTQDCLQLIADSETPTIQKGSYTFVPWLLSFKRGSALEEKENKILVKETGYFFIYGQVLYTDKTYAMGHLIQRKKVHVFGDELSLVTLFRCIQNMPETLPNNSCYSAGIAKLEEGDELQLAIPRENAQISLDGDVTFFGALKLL
The test is described as follows: ELISA, biotinylated hBLyS-ECD captured on streptavidin; antibody 13.3 nM. On the procedure: (§2) Streptavidin was first diluted to a final concentration of 1.0 μg/mL with PBS, and then 50 μL of diluted streptavidin per well was aliquoted into 96-well ELISA plate, which was subsequently sealed with plastic film and incubated at 4° C. overnight. On the next day the plate was washed four times with the plate washing buffer [PBS buffer containing 0.05% (v/v) Tween20] and added with the blocking solution [PBS buffer containing 0.05% (v/v) Tween20 and 1% (w/w) BSA] and blocked for 2 hours at 37° C. The blocking solution was removed, the biotinylated hBLyS-ECD prepared in Embodiment 2 was diluted with PBS to a final concentration of 50 ng/mL and then aliquoted into the 96-well ELISA plate at 50 μL per well and incubated for 1 hour at 37° C. After rinsing the plate four times with the plate washing buffer [PBS buffer containing 0.05% (v/v) Tween20], 100 μl of the purified lead antibody harvested in Embodiment 1 and 2 was pipetted into each well. After incubation for 1 hour at 37° C., the plate was rinsed four times with the plate washing buffer [PBS buffer containing 0.05% (v/v) Tween20]. HRP-labeled (horseradish peroxidase) secondary antibody (purchased from Sigma) was added in and incubated at 37° C. for 1 hour. The plate was then rinsed four times with the plate washing buffer [PBS buffer containing 0.05% (v/v) Tween20]. 100 μL of TMB substrate was aliquoted into each well and after incubation for 5 minutes at room temperature, 100 μL of stop solution (1.0 N HCl) was aliquoted into each well. A₄₅₀ₙₘ values were read via an ELISA plate reader (SpectraMax M5e purchased from Molecular Devices) and the results were shown in FIGS. 5A-5B and Table 10.

Test [4] deals with T2, biotinylated hBLyS-ECD. The test is described as follows: ELISA, biotinylated hBLyS-ECD captured on streptavidin; antibody 0.0213 nM. The protocol: as §2
The target in test [5] is T2, biotinylated hBLyS-ECD. The test is described as follows: ELISA, biotinylated hBLyS-ECD captured on streptavidin; antibody 0.00427 nM. The protocol:
as §2

The target of the next test is T3, human APRIL protein (human, UniProt O75888 105-250, limits assumed).
T3 construct: Bought protein; also called recombinant APRIL protein
T3 sequence (looked up): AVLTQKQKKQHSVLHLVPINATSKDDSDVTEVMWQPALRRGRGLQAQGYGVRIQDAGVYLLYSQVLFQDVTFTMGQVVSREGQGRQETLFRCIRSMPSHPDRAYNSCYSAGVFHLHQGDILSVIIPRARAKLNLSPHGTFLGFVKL
The test is described as follows: ELISA: APRIL coated at 1.0 µg/mL, antibody titrated, HRP secondary antibody. On the procedure:
To test whether the BLyS antibody cross-reacted with human APRIL protein, APRIL protein (purchased from R & D Systems) was first diluted to a final concentration of 1.0 μg/mL with PBS, and then 50 μL of which per well was aliquoted into a 96-well ELISA plate, and the plate was subsequently sealed with plastic film and incubated at 4° C. overnight. On the next day the plate was rinsed four times with the plate washing buffer [PBS buffer containing 0.0500 (v/v) Tween20] and a blocking solution [PBS buffer containing 0.05 (v/v) Tween20 and 1 (w/w) BSA] was added, then the protein was blocked at 37° C. for 2 hours. The blocking solution was removed and 100 μL per well of the lead antibodies prepared in Embodiment 1 and 2 were added in. After incubation for 1 hour at 37° C., the plate was rinsed four times with the plate washing buffer [PBS buffer containing 0.05 (v/v) Tween20]. HRP-labeled (horseradish peroxidase) secondary antibody (purchased from Sigma) was added in and incubated at 37° C. for 1 hour. The plate was then rinsed four times with the plate washing buffer [PBS buffer containing 0.050 (v/v) Tween20]. 100 μL of TMB substrate was aliquoted into each well and after incubation at room temperature for 5 minutes, 100 μL of stop solution (1.0 N HCl) was aliquoted into each well. A₄₅₀ₙₘ values were read via an ELISA plate reader (SpectraMax M5e purchased from Molecular Devices) and the results were shown in FIGS. 6A-6B and Table 11. […] As used herein, the IgG control is human IgG and the data in the table is GD number at 450 nm.

In test [6] the target is T2, biotinylated hBLyS-ECD. The test is described as follows: receptor-ligand blocking ELISA: BAFF R coated, biotinylated hBLyS-ECD added with titrated antibody, HRP-avidin; blocked partner: BAFF R. The protocol:
as §1

T1 sequence (Q9Y275 134-285): as the sequence (Q9Y275 134-285) above

B1: 97A3C2H4 (antibody, V domains shown)
VH: EVKLVESGGGLVQPGGSLKLSCAASGFTFSTYTMSWVRQTPEKRLEWVAYISYGGGSTSYPDTVKGRFTISRDNAKNTLYLQMSSLKSEDTAIYYCTRHVTVVENSMDYWGQGTSVTVSS
VL: DILLTQSPDILSVSPGERVSFSCRASQSIGTSIHWYQQRTNGSPRLLIKYVSESFSGTPSRFSGSGSGTAFTLTINSVESEDIADYYCQQTHSWPWTFGGGTKLEIK
notes: Mouse hybridoma monoclonal antibody purified on Protein G
Regarding B1, the values for the OD450 nm in the test with biotinylated hBLyS-ECD [1] and in the test with biotinylated hBLyS-ECD [2] were 0.208 OD450 nm and 0.816 OD450 nm, respectively.

B2: 97A3C2H4 (antibody, V domains shown)
VH: EVKLVESGGGLVQPGGSLKLSCAASGFTFSTYTMSWVRQTPEKRLEWVAYISYGGGSTSYPDTVKGRFTISRDNAKNTLYLQMSSLKSEDTAIYYCTRHVTVVENSMDYWGQGTSVTVSS
VL: DILLTQSPDILSVSPGERVSFSCRASQSIGTSIHWYQQRTNGSPRLLIKYVSESFSGTPSRFSGSGSGTAFTLTINSVESEDIADYYCQQTHSWPWTFGGGTKLEIK
notes: Mouse hybridoma antibody purified on Protein G
B2: the values for the OD450 nm with biotinylated hBLyS-ECD [3], with biotinylated hBLyS-ECD [4] and in the test with biotinylated hBLyS-ECD [5] were 2.82, 0.283 and 0.105, respectively. For the same molecule, in the test with human APRIL protein, the binding result is “no binding (tested: 66.7 nM)”. Besides, the “IC50 (read off the curve)” value with biotinylated hBLyS-ECD [6] was ~0.3 nM.

B3: 111D10D6G3 (antibody, V domains shown)
VH: QVQLQQPGAELVKPGASVKMSCKASGYTFTRHWITWVKQRPGQGLEWIGDIFPGSGSINYNEKFKSEATLTVEKSSSTAYMQLSSLTSEDSAVYYCARGDVDVWGTGTTVTVSS
VL: DIQMTQSPSSLSASLGERVSLTCRASQEIRGYLSWLQQKPNGTIKRLIYAASTLDSGVPKRFSATRSGSDFSLTISSLESEDFADYYCLQYASYPFTFGSGTKLEIK
notes: as for B1
In the case of B3, the OD450 nm was 0.67 OD450 nm with biotinylated hBLyS-ECD [1] and 0.911 OD450 nm in the test with biotinylated hBLyS-ECD [2].

B4: 111D10D6G3 (antibody, V domains shown)
VH: QVQLQQPGAELVKPGASVKMSCKASGYTFTRHWITWVKQRPGQGLEWIGDIFPGSGSINYNEKFKSEATLTVEKSSSTAYMQLSSLTSEDSAVYYCARGDVDVWGTGTTVTVSS
VL: DIQMTQSPSSLSASLGERVSLTCRASQEIRGYLSWLQQKPNGTIKRLIYAASTLDSGVPKRFSATRSGSDFSLTISSLESEDFADYYCLQYASYPFTFGSGTKLEIK
notes: as for B2
Turning to B4, the OD450 nm with biotinylated hBLyS-ECD [3] worked out at 1.78; with biotinylated hBLyS-ECD [4], 0.194; in the test with biotinylated hBLyS-ECD [5] it was 0.082. In addition, the binding result in the test with human APRIL protein was “no binding (tested: 66.7 nM)”. For the same molecule, in the test with biotinylated hBLyS-ECD [6], the “IC50 (read off the curve)” value was ~0.1 nM.

B5: L9G7 (antibody, human IgG1, V domains shown)
VH: QIQLVQSGAEVKKPGASVKVSCKASGYTFTSYGISWVRQAPGQGLEWMGWISAYNGNTNYAQKLQGRVTMTTDTSTSTAYMELRSLRSDDTAVYYCARTYYDILTGYYYYGMDVWGQGTTVTVSS
VL: EIVLTQSPGTLSLSPGERATLSCRTSQSVDTYLAWYQQKPGQAPRLLIYDASNRATGIPARFSGSGSGTDFTLTISSLEPEDFAVYYCQQRSNWPLTFGGGTKVEIK
For B5, the OD450 nm stood at 1.6 with biotinylated hBLyS-ECD [3], 0.181 with biotinylated hBLyS-ECD [4] and 0.0853 with biotinylated hBLyS-ECD [5]. In the test with human APRIL protein, the binding result is on record as “no binding (tested: 66.7 nM)”. The “IC50 (read off the curve)” value in the test with biotinylated hBLyS-ECD [6] was ~0.7 nM.

B6: 8E7D9C7F5 (antibody, V domains shown)
VH: QVQLQQSGVELARPGASVKLSCKASGYTFTSYGISWVKQRTGQALEWIGEIYPRSGNTYYNEKFKGKATLTADKSSSTAYMELRSLTSEDSAVYFCARSGPITTLVATDYGMDYWGQGTSVTVSS
VL: DIVLTQSPASLAVSLGQRATISCRASKSVSTSSYSYMHWYQQKPGQPPKLLIKFASNLESGVPARFSGSGSGTDFTLNIHPVEEEDAATYYCQHSREFPYTFGGGTKLEIK
notes: as for B1
B6: the OD450 nm in the test with biotinylated hBLyS-ECD [1] amounted to 0.173 OD450 nm; with biotinylated hBLyS-ECD [2] it was 0.61 OD450 nm.

B7: L1D12 (antibody, human IgG1, V domains shown)
VH: QVQLVQSGGGLVQPGGSLRLSCAASGFTVSSNYMSWVRQAPGKGLEWVSVIYSGGSTYYADSVKGRFTISRDNSKNTLYLQMNSLRAEDTAVYYCARGFHDILTGYGMDVWGQGTTVTVSS
VL: SSELTQDPAVSVALGQTVRITCQGDSLRNYYAGWYQQKPGQAPVLVIYGKNNRPSGIPDRFSGSSSGNTASLTITGTQAEDEADYYCSSRDNSGTHLVEFGGGTKLTVL
notes: also called LID12
Take B7: the figures for the OD450 nm in the test with biotinylated hBLyS-ECD [3], in the test with biotinylated hBLyS-ECD [4] and with biotinylated hBLyS-ECD [5] were 1.61, 0.262 and 0.135, respectively. For the same molecule, in the test with human APRIL protein, the binding result was “no binding (tested: 66.7 nM)”. In the test with biotinylated hBLyS-ECD [6], the “IC50 (read off the curve)” value is ~1 nM.
